One substance from article doi:10.1101/2025.10.09.681077 can be followed below.

Test in all cases: partitioning into condensates
For assay [1], the target named is PLPPR3 ICDΔ345 (UniProt Q7TPB0).
For assay [2], the target named is PLPPR3 ICDΔ399 (UniProt Q7TPB0).
Assay [3] has as its target PLPPR3 ICDΔ345/Δ399 (double mutant) (UniProt Q7TPB0).
The target in assay [4] is PLPPR3 intracellular domain (ICD), purification construct HA-M1-PLPPR3 ICD-His (UniProt Q7TPB0).

Consider “alpha-actin (from UniProt P68032 1-377) (natural protein)”, for which the partition coefficient of G-actin into condensates, k actin (Cin/Cout) is 15.2 in assay [1], 11.8 in assay [2], 11.8 in assay [3] and 15.4 in assay [4].
